Laboratory results: patent publication US11931401B2, “Runx3 modified protein for prevention or treatment of cancer” (GeneCraft Inc., priority 2020, dated 2024)
Numbering of substitutions follows the chain as printed. In names and notes the source's numbering stands. Entries after “also recorded” stand apart in the source; their conditions may differ.

Tests used:
lung cancer cell lines = assay: Apoptosis by flow cytometry (FITC-Annexin V / propidium iodide), lung cancer cell lines; format: cell-based
Method: (§1) Each cell line was cultured in a 10 cm culture dish (5×10^5 cells) for 2 days and then approximately 2×10^6 cells of each cell line was infected with 1×10^8 VP of adenovirus or adenovirus Runx3 or adenovirus Runx3 S356A. After 48 hours, the cell death rate was measured by flow cytometry.

BRD2 [1] = molecular target: T1, BRD2 (Homo sapiens, UniProt P25440); assay: Time-dependent BRD2-RUNX3 complex formation after serum stimulation by immunoprecipitation (IP) and immunoblotting (IB); format: binding; conditions: overexpressed Myc-tagged protein; FIG. 1
Method: The antibody targeting RUNX3 (5G4) (Cat #ab40278) was obtained from Abcam (Cambridge, UK), and the antibody was diluted 1:3000. BRD2 (M01; 1:1000; Cat #H00006046-M01, Abnova, Taipei City, Taiwan) was used for immunoblotting and immunoprecipitation.
RUNX3 phosphorylation in serine, the 356th amino acid of Runx3 protein, was measured by immunoprecipitation (IP) and immunoblotting (IB) in the same manner as described in Experimental Method 3 above.

[2] = tested on: pancreatic cancer cell lines; assay: Apoptosis by flow cytometry (FITC-Annexin V / propidium iodide), pancreatic cancer cell lines; format: cell-based; conditions: listed as modified protein in which the 356th serine of Runx3 is substituted with alanine
Method: as §1

BRD2 [3] = molecular target: T1, BRD2; assay: Time for which Runx3 protein forms a complex with Brd2 protein (IP/IB); format: binding; conditions: for time for which physical binding / complex with BRD2 was maintained: IP/IB
Method: The modified protein in which the 356th amino acid of Runx3 is substituted with alanine blocks the physical binding between Runx3 and CDK4, thereby inhibiting the phosphorylation of the 356th serine of Runx3 by CDK4. By inhibiting the conversion of the Rpa-Rx3-AC complex including Runx3 to the Rpa-Rx3-TR complex, the function of maintaining the anticancer activity of Runx3 is improved. Thus, the following experiment was performed to compare the time for the modified protein in which the 356th amino acid of Runx3 is substituted with alanine to form a complex by binding to Brd2 protein with the wild-type Runx3.
Particularly, the antibody targeting RUNX3 (5G4) (Cat #ab40278) was obtained from Abcam (Cambridge, UK), and the antibody was diluted 1:3000. BRD2 (M01; 1:1000; Cat #H00006046-M01, Abnova, Taipei City, Taiwan) was used for immunoblotting and immunoprecipitation.

[4] = tested on: stomach cancer cell lines; assay: Apoptosis by flow cytometry (FITC-Annexin V / propidium iodide), stomach cancer cell lines; format: cell-based; conditions: stomach (gastric) cancer cell lines; listed as modified protein in which the 356th serine of Runx3 is substituted with alanine
Method: as §1

T1 sequence (P25440 whole entry): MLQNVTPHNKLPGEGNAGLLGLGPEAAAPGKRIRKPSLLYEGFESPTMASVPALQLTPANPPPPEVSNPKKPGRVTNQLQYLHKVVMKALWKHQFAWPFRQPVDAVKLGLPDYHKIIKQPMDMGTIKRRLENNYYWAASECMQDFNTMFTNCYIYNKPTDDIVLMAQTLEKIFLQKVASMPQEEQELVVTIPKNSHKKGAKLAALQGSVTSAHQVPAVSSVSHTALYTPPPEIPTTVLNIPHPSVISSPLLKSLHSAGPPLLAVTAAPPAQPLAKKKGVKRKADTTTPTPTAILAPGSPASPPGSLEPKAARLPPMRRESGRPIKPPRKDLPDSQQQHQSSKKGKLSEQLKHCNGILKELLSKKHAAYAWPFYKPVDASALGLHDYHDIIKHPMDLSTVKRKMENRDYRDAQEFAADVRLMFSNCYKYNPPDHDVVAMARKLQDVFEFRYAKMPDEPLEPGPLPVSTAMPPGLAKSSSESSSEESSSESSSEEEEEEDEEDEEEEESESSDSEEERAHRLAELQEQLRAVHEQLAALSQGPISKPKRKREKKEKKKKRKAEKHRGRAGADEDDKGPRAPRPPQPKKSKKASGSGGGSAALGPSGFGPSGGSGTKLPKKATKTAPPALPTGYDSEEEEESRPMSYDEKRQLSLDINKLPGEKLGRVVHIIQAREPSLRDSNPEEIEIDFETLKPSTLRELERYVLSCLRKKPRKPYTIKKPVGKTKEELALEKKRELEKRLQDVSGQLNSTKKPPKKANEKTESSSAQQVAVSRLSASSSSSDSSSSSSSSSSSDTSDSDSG

B1: S356A: Runx3 modified protein: 356th serine substituted with alanine (TCA→GCA) (protein)
chain: MRIPVDPSTSRRFTPPSPAFPCGGGGGKMGENSGALSAQAAVGPGGRARPEVRSMVDVLADHAGELVRTDSPNFLCSVLPSHWRCNKTLPVAFKVVALGDVPDGTVVTVMAGNDENYSAELRNASAVMKNQVARFNDLRFVGRSGRGKSFTLTITVFTNPTQVATYHRAIKVTVDGPREPRRHRQKLEDQTKPFPDRFGDLERLRMRVTPSTPSPRGSLSTTSHFSSQPQTPIQGTSELNPFSDPRQFDRSFPTLPTLTESRFPDPRMHYPGAMSAAFPYSATPSGTSISSLSVAGMPATSRFHHTYLPPPYPGAPQNQSGPFQANPSPYHLYYGTSSGSYQFSMVAGSSSGGDRAPTRMLASCTSSAASVAAGNLMNPSLGGQSDGVEADGSHSNSPTALSTPGRMDEAVWRPY
modifications: Myc tag; Runx3 isoform2 amino acid
- cancer cell killing compared to the wild-type Runx3 protein (in words) (lung cancer cell lines): more effective in killing cancer cells
- increase of apoptosis rate compared to the wild-type Runx3 protein (lung cancer cell lines; flow cytometry): ≥ 2 times
- time for which binding with BRD2 was maintained after the serum stimulation (BRD2 [1]): ≤ 8 h
- cancer cell death efficacy compared to the wild-type Runx3 protein (in words) [2]: more effective in killing cancer cells; also recorded: further increased the cancer cell death efficacy
- time for which physical binding / complex with BRD2 was maintained (BRD2 [3]): up to 40 hours
- cancer cell death efficacy compared to the wild-type Runx3 protein (in words) [4]: more effective in killing cancer cells; also recorded: further increased the cancer cell death efficacy

B2: S356 wild type: Wild-type Runx3 (Runt-related transcription factor 3) protein, 356th serine not substituted; SEQ ID NO: 2 (protein)
chain: B1 chain with A356S
modifications: Runx3 isoform2 amino acid
- time for which physical binding / complex with BRD2 was maintained (BRD2 [3]): up to 8 hours
- time after which the binding of Runx3 and BRD2 was separated (BRD2 [3]; after the binding): 3 h
